We go through two substances from article PMC11731035.

The test has as its target plastidic 70S ribosomes of Arabidopsis thaliana (Arabidopsis thaliana (endogenous)). Briefly: co-sedimentation; lysate of Col-0 plants grown at 21 °C layered on a 25% sucrose cushion, 173,292 x g for 20 min; immunoblot of total, supernatant and ribosomal pellet, quantified as R/(R+S); standard ribosome buffer (Mg2+), also with 800 mM KCl (high salt) or 1 mM puromycin. In general terms: Immunoblotting shows a protein as a band on a membrane.

With “Trigger factor 1 (Tig1), Arabidopsis thaliana chloroplast (natural protein)”, the fraction co-sedimented with ribosomes amounted to 8%.

“Trigger factor 2 (Tig2), Arabidopsis thaliana chloroplast (natural protein)”: the fraction co-sedimented with ribosomes was 25%.
